What is called IC50 is the concentration at which inhibition is half-maximal. A high value points to weaker potency in that assay.

In this test the target is human PTH-2 receptor (human, UniProt P49190 25-550). Kind of test: competition binding vs 125I-rPTH(1-34), COS-7 cells.
human PTH-2 receptor, sequence (P49190 25-550): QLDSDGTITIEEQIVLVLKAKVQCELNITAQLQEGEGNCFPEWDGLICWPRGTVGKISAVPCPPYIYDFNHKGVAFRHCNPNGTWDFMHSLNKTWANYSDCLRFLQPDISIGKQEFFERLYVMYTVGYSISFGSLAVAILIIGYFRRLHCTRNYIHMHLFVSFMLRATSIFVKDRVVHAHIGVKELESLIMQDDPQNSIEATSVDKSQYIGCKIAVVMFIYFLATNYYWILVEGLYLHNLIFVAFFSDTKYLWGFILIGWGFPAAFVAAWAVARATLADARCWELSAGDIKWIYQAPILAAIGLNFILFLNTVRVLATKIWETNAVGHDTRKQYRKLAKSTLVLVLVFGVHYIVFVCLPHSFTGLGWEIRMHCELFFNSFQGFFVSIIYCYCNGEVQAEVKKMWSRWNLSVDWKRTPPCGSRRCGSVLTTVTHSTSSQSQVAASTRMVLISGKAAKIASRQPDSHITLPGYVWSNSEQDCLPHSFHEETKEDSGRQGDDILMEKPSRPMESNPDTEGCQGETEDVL
Take SMERVEWLAKKLQDV [PTH(17-31) 25 Arg→Ala]: the IC50 is 3800 nM. For SMERVEWLRAKLQDV [PTH(17-31) 26 Lys→Ala] the value was 8300 nM; for SMERAEWLRKKLQDV [PTH(17-31) 21 Val→Ala], 1700 nM; for SMERVAWLRKKLQDV [PTH(17-31) 22 Glu→Ala], 600 nM. Next, SMEAVEWLRKKLQDV [PTH(17-31) 20 Arg→Ala]: 90500 nM; SMARVEWLRKKLQDV [PTH(17-31) 19 Glu→Ala]: 700 nM. Next, SMERVEWLRKALQDV [PTH(17-31) 27 Lys→Ala]: 1100 nM; AMERVEWLRKKLQDV [PTH(17-31) 17 Ser→Ala]: 1500 nM; SMERVEWLRKKLADV [PTH(17-31) 29 Gln→Ala]: 900 nM.

The molecule SMERVEWLRKKLQDV [PTH(17-31)] returned an IC50 of 1000 nM. In the case of SMERVEWLRKKLQAV [PTH(17-31) 30 Asp→Ala], the IC50 turned out to be 1100 nM.

SAERVEWLRKKLQDV [PTH(17-31) 18 Met→Ala] yielded an IC50 of 1500 nM. For SMERVEALRKKLQDV [PTH(17-31) 23 Trp→Ala] the value was greater than 100000 nM; for SMERVEWLRKKAQDV [PTH(17-31) 28 Leu→Ala], 9900 nM; for SMERVEWLRKKLQDA [PTH(17-31) 31 Val→Ala], 3800 nM. Next, SMERVEWARKKLQDV [PTH(17-31) 24 Leu→Ala]: 67500 nM.

For the origin of these results see patent publication US7057012 (dated 2006).
